Results on 6 molecules are retold here after US20240301064A1 (published 2024).

Sequences and labels used below:
B1: PMAB119 (bispecific antibody, human IgG1, kappa)
heavy: QVQLVQSGAEVKKPGASVKVSCKASGYSFTTYYMHWVRQAPGQGLEWMGIIAPSGGSTSYAQKFQGRVTMTRDTSTSTVYMELSSLRSEDTAVYYCASGWVYWGQGTLVTVSSASTKGPSVFPLAPSSKSTSGGTAALGCLVKDYFPEPVTVSWNSGALTSGVHTFPAVLQSSGLYSLSSVVTVPSSSLGTQTYICNVNHKPSNTKVDKKVEPKSCDKTHTCPPCPAPEAAGAPSVFLFPPKPKDTLMISRTPEVTCVVVDVSHEDPEVKFNWYVDGVEVHNAKTKPREEQYNSTYRVVSVLTVLHQDWLNGKEYKCKVSNKALPAPIEKTISKAKGQPREPQVYTLPPSREEMTKNQVSLTCLVKGFYPSDIAVEWESNGQPENNYKTTPPVLDSDGSFFLYSKLTVDKSRWQQGNVFSCSVMHEALHNHYTQKSLSLSPGGGGGSGGGGSGGGGSEVQLLESGGGLVQPGGSLRLSCAASGFTFSDFWMHWVRQAPGKGLEWISYISGDSGYTNYADSVKGRFTISRDNSKNTLYLQMNSLRAEDTAVYYCARDRPYYYYMDVWGKGTTVTVSSGGGGSGGGGSGGGGSGGGGSDIQMTQSPSSLSASVGDRVTITCRASQSVSRSLAWYQQKPGKAPKLLIYAASSLQSGVPSRFSGSGSGTDFTLTISSLQPEDFATYYCQQYKSYPVTFGQGTKVEIK
light: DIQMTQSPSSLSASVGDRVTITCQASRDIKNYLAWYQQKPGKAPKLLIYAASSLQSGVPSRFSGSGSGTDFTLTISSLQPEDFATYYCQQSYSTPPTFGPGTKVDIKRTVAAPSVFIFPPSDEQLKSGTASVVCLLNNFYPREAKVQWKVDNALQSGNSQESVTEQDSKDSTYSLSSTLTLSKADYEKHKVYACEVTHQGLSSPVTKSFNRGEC
B2: PMAB108 (bispecific antibody, human IgG1, kappa)
heavy: QVQLVQSGAEVKKPGASVKVSCKASGYTFTTYYMHWVRQAPGQGLEWMGIIAPSGGSTSYAQKFQGRVTMTRDTSTSTVYMELSSLRSEDTAVYYCASGWVYWGQGTLVTVSSASTKGPSVFPLAPSSKSTSGGTAALGCLVKDYFPEPVTVSWNSGALTSGVHTFPAVLQSSGLYSLSSVVTVPSSSLGTQTYICNVNHKPSNTKVDKKVEPKSCDKTHTCPPCPAPEAAGAPSVFLFPPKPKDTLMISRTPEVTCVVVDVSHEDPEVKFNWYVDGVEVHNAKTKPREEQYNSTYRVVSVLTVLHQDWLNGKEYKCKVSNKALPAPIEKTISKAKGQPREPQVYTLPPSREEMTKNQVSLTCLVKGFYPSDIAVEWESNGQPENNYKTTPPVLDSDGSFFLYSKLTVDKSRWQQGNVFSCSVMHEALHNHYTQKSLSLSPGGGGGSGGGGSGGGGSEVQLLESGGGLVQPGGSLRLSCAASGFTFSDFWMHWVRQAPGKGLEWISYISGDSGYTNYADSVKGRFTISRDNSKNTLYLQMNSLRAEDTAVYYCARDRPYYYYMDVWGKGTTVTVSSGGGGSGGGGSGGGGSGGGGSDIQMTQSPSSLSASVGDRVTITCRASQSVSRSLAWYQQKPGKAPKLLIYAASSLQSGVPSRFSGSGSGTDFTLTISSLQPEDFATYYCQQYKSYPVTFGQGTKVEIK
light: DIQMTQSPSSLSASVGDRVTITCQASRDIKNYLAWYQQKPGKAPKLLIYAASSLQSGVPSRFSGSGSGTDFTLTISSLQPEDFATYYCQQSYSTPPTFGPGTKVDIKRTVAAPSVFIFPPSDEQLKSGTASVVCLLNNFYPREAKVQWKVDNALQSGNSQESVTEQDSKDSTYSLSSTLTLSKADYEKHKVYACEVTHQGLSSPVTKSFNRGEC
B3: PMAB194 (bispecific antibody, human IgG1, kappa)
heavy: EVQLLESGGGLVQPGGSLRLSCAASGFTFSSYDMSWVRQAPGKGLEWVSGITISGGSTYYADSVKGRFTISRDNSKNTLYLQMNSLRAEDTAVYYCARGRGGSGWLDYWGQGTLVTVSSASTKGPSVFPLAPSSKSTSGGTAALGCLVKDYFPEPVTVSWNSGALTSGVHTFPAVLQSSGLYSLSSVVTVPSSSLGTQTYICNVNHKPSNTKVDKKVEPKSCDKTHTCPPCPAPEAAGAPSVFLFPPKPKDTLMISRTPEVTCVVVDVSHEDPEVKFNWYVDGVEVHNAKTKPREEQYNSTYRVVSVLTVLHQDWLNGKEYKCKVSNKALPAPIEKTISKAKGQPREPQVYTLPPSREEMTKNQVSLTCLVKGFYPSDIAVEWESNGQPENNYKTTPPVLDSDGSFFLYSKLTVDKSRWQQGNVFSCSVMHEALHNHYTQKSLSLSPGGGGGSGGGGSGGGGSEVQLLESGGGLVQPGGSLRLSCAASGFTFSSYWMHWVRQAPGKGLEWVSYISGSGGYTNYADSVKGRFTISRDNSKNTLYLQMNSLRAEDTAVYYCARDRPYGYYMDVWGKGTTVTVSSGGGGSGGGGSGGGGSGGGGSDIQMTQSPSSLSASVGDRVTITCRASQSISSSLAWYQQKPGKAPKLLIYAASSLQSGVPSRFSGSGSGTDFTLTISSLQPEDFATYYCQQYKSYPVTFGQGTKVEIK
light: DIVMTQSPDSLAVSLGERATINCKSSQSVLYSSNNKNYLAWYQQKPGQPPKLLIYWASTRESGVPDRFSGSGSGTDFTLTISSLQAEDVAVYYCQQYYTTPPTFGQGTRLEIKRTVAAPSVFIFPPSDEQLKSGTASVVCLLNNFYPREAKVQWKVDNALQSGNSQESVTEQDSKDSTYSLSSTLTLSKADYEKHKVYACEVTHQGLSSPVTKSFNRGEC
B4: PMAB198 (bispecific antibody, human IgG1, kappa)
heavy: EVQLLESGGGLVQPGGSLRLSCAASGFTFSSYDMSWVRQAPGKGLEWVSGITISGGSTYYADSVKGRFTISRDNSKNTLYLQMNSLRAEDTAVYYCARGRGGSGWLDYWGQGTDVTVSSASTKGPSVFPLAPSSKSTSGGTAALGCLVKDYFPEPVTVSWNSGALTSGVHTFPAVLQSSGLYSLSSVVTVPSSSLGTQTYICNVNHKPSNTKVDKKVEPKSCDKTHTCPPCPAPEAAGAPSVFLFPPKPKDTLMISRTPEVTCVVVDVSHEDPEVKFNWYVDGVEVHNAKTKPREEQYNSTYRVVSVLTVLHQDWLNGKEYKCKVSNKALPAPIEKTISKAKGQPREPQVYTLPPSREEMTKNQVSLTCLVKGFYPSDIAVEWESNGQPENNYKTTPPVLDSDGSFFLYSKLTVDKSRWQQGNVFSCSVMHEALHNHYTQKSLSLSPGGGGGSGGGGSGGGGSEVQLLESGGGLVQPGGSLRLSCAASGFTFSSYWMHWVRQAPGKGLEWVSYISGSGGYTNYADSVKGRFTISRDNSKNTLYLQMNSLRAEDTAVYYCARDRPYGYYMDVWGKGTTVTVSSGGGGSGGGGSGGGGSGGGGSDIQMTQSPSSLSASVGDRVTITCRASQSISSSLAWYQQKPGKAPKLLIYAASSLQSGVPSRFSGSGSGTDFTLTISSLQPEDFATYYCQQYKSYPVTFGQGTKVEIK
light: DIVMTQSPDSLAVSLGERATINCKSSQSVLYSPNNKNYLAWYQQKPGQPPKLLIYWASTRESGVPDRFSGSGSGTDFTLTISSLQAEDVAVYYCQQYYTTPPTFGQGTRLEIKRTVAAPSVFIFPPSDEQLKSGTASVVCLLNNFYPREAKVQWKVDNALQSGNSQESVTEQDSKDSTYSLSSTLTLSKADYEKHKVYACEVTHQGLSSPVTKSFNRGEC
B5: PMAB199 (bispecific antibody, human IgG1, kappa)
heavy: EVQLLESGGGLVQPGGSLRLSCAASGFTFSSYDMSWVRQAPGKGLEWVSGITISGGSTYYADSVKGRFTISRDNSKNTLYLQMNSLRAEDTAVYYCARGRGGSGWLDYWGQGTTVTVSSASTKGPSVFPLAPSSKSTSGGTAALGCLVKDYFPEPVTVSWNSGALTSGVHTFPAVLQSSGLYSLSSVVTVPSSSLGTQTYICNVNHKPSNTKVDKKVEPKSCDKTHTCPPCPAPEAAGAPSVFLFPPKPKDTLMISRTPEVTCVVVDVSHEDPEVKFNWYVDGVEVHNAKTKPREEQYNSTYRVVSVLTVLHQDWLNGKEYKCKVSNKALPAPIEKTISKAKGQPREPQVYTLPPSREEMTKNQVSLTCLVKGFYPSDIAVEWESNGQPENNYKTTPPVLDSDGSFFLYSKLTVDKSRWQQGNVFSCSVMHEALHNHYTQKSLSLSPGGGGGSGGGGSGGGGSEVQLLESGGGLVQPGGSLRLSCAASGFTFSSYWMHWVRQAPGKGLEWVSYISGSGGYTNYADSVKGRFTISRDNSKNTLYLQMNSLRAEDTAVYYCARDRPYGYYMDVWGKGTTVTVSSGGGGSGGGGSGGGGSGGGGSDIQMTQSPSSLSASVGDRVTITCRASQSISSSLAWYQQKPGKAPKLLIYAASSLQSGVPSRFSGSGSGTDFTLTISSLQPEDFATYYCQQYKSYPVTFGQGTKVEIK
light: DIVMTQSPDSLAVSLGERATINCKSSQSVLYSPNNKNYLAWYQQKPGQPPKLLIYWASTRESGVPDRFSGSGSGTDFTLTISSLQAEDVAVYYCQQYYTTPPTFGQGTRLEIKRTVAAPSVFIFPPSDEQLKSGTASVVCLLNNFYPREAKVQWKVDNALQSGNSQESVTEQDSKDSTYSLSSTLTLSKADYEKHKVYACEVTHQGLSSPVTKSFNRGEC
B6: PMAB195 (bispecific antibody, human IgG1, kappa)
heavy: EVQLLESGGGLVQPGGSLRLSCAASGFTFSSYDMSWVRQAPGKGLEWVSGITISGGSTYYADSVKGRFTISRDNSKNTLYLQMNSLRAEDTAVYYCARGRGGSGWLDYWGQGTLVTVSSASTKGPSVFPLAPSSKSTSGGTAALGCLVKDYFPEPVTVSWNSGALTSGVHTFPAVLQSSGLYSLSSVVTVPSSSLGTQTYICNVNHKPSNTKVDKKVEPKSCDKTHTCPPCPAPEAAGAPSVFLFPPKPKDTLMISRTPEVTCVVVDVSHEDPEVKFNWYVDGVEVHNAKTKPREEQYNSTYRVVSVLTVLHQDWLNGKEYKCKVSNKALPAPIEKTISKAKGQPREPQVYTLPPSREEMTKNQVSLTCLVKGFYPSDIAVEWESNGQPENNYKTTPPVLDSDGSFFLYSKLTVDKSRWQQGNVFSCSVMHEALHNHYTQKSLSLSPGGGGGSGGGGSGGGGSEVQLLESGGGLVQPGGSLRLSCAASGFTFSSYWMHWVRQAPGKGLEWVSYISGSGGYTNYADSVKGRFTISRDNSKNTLYLQMNSLRAEDTAVYYCARDRPYGYYMDVWGKGTTVTVSSGGGGSGGGGSGGGGSGGGGSDIQMTQSPSSLSASVGDRVTITCRASQSISSSLAWYQQKPGKAPKLLIYAASSLQSGVPSRFSGSGSGTDFTLTISSLQPEDFATYYCQQYKSYPVTFGQGTKVEIK
light: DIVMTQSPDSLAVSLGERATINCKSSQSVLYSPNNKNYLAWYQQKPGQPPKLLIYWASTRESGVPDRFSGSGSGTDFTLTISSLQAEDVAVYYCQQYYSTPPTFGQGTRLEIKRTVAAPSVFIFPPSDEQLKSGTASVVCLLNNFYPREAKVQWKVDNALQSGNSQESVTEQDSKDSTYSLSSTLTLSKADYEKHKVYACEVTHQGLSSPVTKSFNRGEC

For the assay, the target named is T1, human PD-1 (human, UniProt Q15116 25-167, limits assumed).
T1 construct: also called huPD-1
T1 sequence (Q15116 25-167 limits assumed): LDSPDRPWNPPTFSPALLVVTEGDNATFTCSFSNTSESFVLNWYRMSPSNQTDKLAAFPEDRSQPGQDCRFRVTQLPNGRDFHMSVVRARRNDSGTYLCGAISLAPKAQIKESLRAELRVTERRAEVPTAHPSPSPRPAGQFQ
In words: BLI, antibody on AHC tip, soluble PD-1. (In BLI a coated tip is dipped into the sample, and binding shifts an interference pattern.)
Regarding B1, binding was put at a Kd of 96.9 nM.

As to B2, the affinity, expressed as Kd, was 55.3 nM. This Kd lies about 1.8-fold lower than the previous one.

In the case of B3, the affinity, expressed as Kd, was 577 nM.

As for B4, binding was characterised by a dissociation constant (Kd) of 104 nM.

As to B5, the Kd – broadly, the free concentration of one partner at which half of the binding sites on the other are occupied at equilibrium, for simple one-to-one binding – worked out at 98.6 nM.

B6 displayed an equilibrium dissociation constant (Kd) of 651 nM. This Kd lies about 6.6-fold higher than the previous one.
